Assay results from PMC11535040, “Requirement of Nek2a and cyclin A2 for Wapl-dependent removal of cohesin from prophase chromatin” (The EMBO Journal, 2024).

Biological target: T1, Flag-tagged Pds5b-Ser1177,1182,1209Ala (3A) phosphorylated by Cdk1/2-cyclin A2 (human, UniProt Q9NTI5 1-1447, Ser1177,1182,1209Ala | Ser1177,1182,1209Ala | Ser1177,1182,1209Ala, phosphoserine at 1161 and 1166 (by Cdk1/2-cyclin A2))
T1 construct: Pds5b, human; also called Pds5b-3A
T1 sequence (looked up): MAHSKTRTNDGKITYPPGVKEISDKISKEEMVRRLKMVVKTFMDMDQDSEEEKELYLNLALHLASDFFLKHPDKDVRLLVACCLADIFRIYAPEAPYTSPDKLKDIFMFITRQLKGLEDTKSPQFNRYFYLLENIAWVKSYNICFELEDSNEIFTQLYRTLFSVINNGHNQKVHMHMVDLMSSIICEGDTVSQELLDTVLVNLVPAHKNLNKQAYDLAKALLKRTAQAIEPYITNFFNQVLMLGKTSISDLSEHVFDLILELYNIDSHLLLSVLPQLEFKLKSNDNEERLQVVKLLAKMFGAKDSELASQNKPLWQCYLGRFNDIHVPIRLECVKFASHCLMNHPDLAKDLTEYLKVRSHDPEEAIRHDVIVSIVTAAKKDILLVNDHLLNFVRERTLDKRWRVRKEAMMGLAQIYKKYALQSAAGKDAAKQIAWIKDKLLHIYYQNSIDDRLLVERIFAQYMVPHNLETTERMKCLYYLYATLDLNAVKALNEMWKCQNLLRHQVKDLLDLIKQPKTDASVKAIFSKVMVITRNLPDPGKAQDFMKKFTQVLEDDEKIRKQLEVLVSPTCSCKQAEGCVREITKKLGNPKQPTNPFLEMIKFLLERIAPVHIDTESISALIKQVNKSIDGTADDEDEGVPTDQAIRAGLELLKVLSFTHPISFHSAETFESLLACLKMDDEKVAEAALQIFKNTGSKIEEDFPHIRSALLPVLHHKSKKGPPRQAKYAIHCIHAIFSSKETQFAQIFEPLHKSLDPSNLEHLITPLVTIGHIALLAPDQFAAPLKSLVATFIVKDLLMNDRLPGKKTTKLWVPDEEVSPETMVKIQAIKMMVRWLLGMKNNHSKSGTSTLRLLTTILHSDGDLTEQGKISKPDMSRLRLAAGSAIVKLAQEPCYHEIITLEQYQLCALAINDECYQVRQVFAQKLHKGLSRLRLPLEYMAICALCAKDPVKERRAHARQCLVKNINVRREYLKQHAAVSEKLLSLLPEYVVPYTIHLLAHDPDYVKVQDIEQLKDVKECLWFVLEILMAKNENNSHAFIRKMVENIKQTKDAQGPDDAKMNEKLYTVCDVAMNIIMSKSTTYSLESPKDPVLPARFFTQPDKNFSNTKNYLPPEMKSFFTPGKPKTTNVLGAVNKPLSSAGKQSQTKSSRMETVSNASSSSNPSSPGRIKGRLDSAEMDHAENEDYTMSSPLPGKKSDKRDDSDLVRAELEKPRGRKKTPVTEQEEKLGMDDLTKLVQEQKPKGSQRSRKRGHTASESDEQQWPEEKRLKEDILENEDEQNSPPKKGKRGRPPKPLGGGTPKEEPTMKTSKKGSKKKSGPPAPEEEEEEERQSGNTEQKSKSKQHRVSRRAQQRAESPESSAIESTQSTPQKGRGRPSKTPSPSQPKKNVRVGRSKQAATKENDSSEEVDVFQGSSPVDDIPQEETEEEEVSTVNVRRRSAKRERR
Assay: pull-down; Flag-Pds5b variants affinity-purified from Nek2a- and cyclin A2-free prometaphase cells, incubated on the beads with recombinant Nek2a and/or Cdk1/2-cyclin A2 and ATP, washed, then incubated with recombinant Wapl (2 µl) and sororin (0.3 µg) in 15 µl cleavage buffer without ATP, 20 min at 37 °C; immunoblotting
Conditions: both partners purified

B1: recombinant human Wapl (natural protein, UniProt Q7Z5K2 1-1190, looked up)
chain: MTSRFGKTYSRKGGNGSSKFDEVFSNKRTTLSTKWGETTFMAKLGQKRPNFKPDIQEIPKKPKVEEESTGDPFGFDSDDESLPVSSKNLAQVKCSSYSESSEAAQLEEVTSVLEANSKISHVVVEDTVVSDKCFPLEDTLLGKEKSTNRIVEDDASISSCNKLITSDKVENFHEEHEKNSHHIHKNADDSTKKPNAETTVASEIKETNDTWNSQFGKRPESPSEISPIKGSVRTGLFEWDNDFEDIRSEDCILSLDSDPLLEMKDDDFKNRLENLNEAIEEDIVQSVLRPTNCRTYCRANKTKSSQGASNFDKLMDGTSQALAKANSESSKDGLNQAKKGGVSCGTSFRGTVGRTRDYTVLHPSCLSVCNVTIQDTMERSMDEFTASTPADLGEAGRLRKKADIATSKTTTRFRPSNTKSKKDVKLEFFGFEDHETGGDEGGSGSSNYKIKYFGFDDLSESEDDEDDDCQVERKTSKKRTKTAPSPSLQPPPESNDNSQDSQSGTNNAENLDFTEDLPGVPESVKKPINKQGDKSKENTRKIFSGPKRSPTKAVYNARHWNHPDSEELPGPPVVKPQSVTVRLSSKEPNQKDDGVFKAPAPPSKVIKTVTIPTQPYQDIVTALKCRREDKELYTVVQHVKHFNDVVEFGENQEFTDDIEYLLSGLKSTQPLNTRCLSVISLATKCAMPSFRMHLRAHGMVAMVFKTLDDSQHHQNLSLCTAALMYILSRDRLNMDLDRASLDLMIRLLELEQDASSAKLLNEKDMNKIKEKIRRLCETVHNKHLDLENITTGHLAMETLLSLTSKRAGDWFKEELRLLGGLDHIVDKVKECVDHLSRDEDEEKLVASLWGAERCLRVLESVTVHNPENQSYLIAYKDSQLIVSSAKALQHCEELIQQYNRAEDSICLADSKPLPHQNVTNHVGKAVEDCMRAIIGVLLNLTNDNEWGSTKTGEQDGLIGTALNCVLQVPKYLPQEQRFDIRVLGLGLLINLVEYSARNRHCLVNMETSCSFDSSICSGEGDDSLRIGGQVHAVQALVQLFLERERAAQLAESKTDELIKDAPTTQHDKSGEWQETSGEIQWVSTEKTDGTEEKHKKEEEDEELDLNKALQHAGKHMEDCIVASYTALLLGCLCQESPINVTTVREYLPEGDFSIMTEMLKKFLSFMNLTCAVGTTGQKSISRVIEYLEHC
notes: Wapl, human; insert by PCR on human cDNA; Isolated from mitotically arrested cells; also called GFP-SUMOstar-Wapl; source: Hek293T, transiently transfected, taxol-arrested; not shown: GFP, N-terminal, cleaved; SUMOstar, N-terminal, cleaved
Question: Does B1 bind?
Answer: binds
